Target: T1, GST-tagged Lamin A-C178 (250-428 aa), wild type (UniProt P02545 250-428)
T1 construct: Lamin A, fragment C178, residues 250-428; also called Lamin-A-C178-WT
T1 sequence (looked up): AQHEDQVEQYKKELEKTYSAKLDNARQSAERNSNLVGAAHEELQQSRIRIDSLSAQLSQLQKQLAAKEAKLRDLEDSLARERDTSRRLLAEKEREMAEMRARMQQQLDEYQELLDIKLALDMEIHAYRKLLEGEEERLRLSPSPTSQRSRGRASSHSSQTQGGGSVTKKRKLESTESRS
Test: pull-down; 10 ug GST-tagged protein on glutathione agarose beads incubated with 10 ug soluble recombinant protein; PBS with 0.1% Triton X-100, 4 C, 4 h; three washes; SDS-PAGE with Coomassie staining; salt concentration also varied (Fig. S4B)
Conditions: both partners purified

binding result: binds
B1: His-tagged Lamin A-N125 (1-125 aa), wild type (domain or fragment, UniProt P02545 1-125, looked up)
chain: METPSQRRATRSGAQASSTPLSPTRITRLQEKEDLQELNDRLAVYIDRVRSLETENAGLRLRITESEEVVSREVSGIKAAYEAELGDARKTLDSVAKERARLQLELSKVREEFKELKARNTKKEG
notes: The cell work is in human HeLa cells; also called Lamin A-N125-WT; source: E. coli BL21, purified (Ni-NTA agarose, dialysed)

From publication PMC11731451, “Phosphorylation of Lamin A/C regulates the structural integrity of the nuclear envelope” (The Journal of Biological Chemistry, 2024)
